Tests used:
[1] = target: T1, protein D (albumin and α1-antitrypsin complex) (Bos taurus, UniProt P02769+P34955); assay: Band shift of AMPs by protein D; type: binding, bovine; conditions: AMP 4 μg; protein 10 μg (Suppl. Fig. 3a); PC buffer, room temperature, 30 min; 8% horizontal native PAGE
T1 construct: The active components were further purified by fast performance liquid chromatography (FPLC) Mono Q and S12 column chromatography from the 70% saturated fraction; from tissue; host or cells: fetal bovine serum (70% ammonium sulfate fraction, FPLC Mono Q and Superose 12)

[2] = target: T2, protein B (α1-antitrypsin) (Bos taurus, UniProt P34955); assay: Band shift of AMPs by protein B; type: binding, bovine; design: The homogeneities of collected protein A (albumin), protein B (α1-antitrypsin), protein C (serotransferrin) and protein D complex; from tissue; host or cells: fetal bovine serum (70% ammonium sulfate fraction, FPLC Mono Q); conditions: AMP 4 μg; protein 10 μg (Suppl. Fig. 3a); PC buffer, room temperature, 30 min; 8% horizontal native PAGE
T2 sequence (P34955 25-416): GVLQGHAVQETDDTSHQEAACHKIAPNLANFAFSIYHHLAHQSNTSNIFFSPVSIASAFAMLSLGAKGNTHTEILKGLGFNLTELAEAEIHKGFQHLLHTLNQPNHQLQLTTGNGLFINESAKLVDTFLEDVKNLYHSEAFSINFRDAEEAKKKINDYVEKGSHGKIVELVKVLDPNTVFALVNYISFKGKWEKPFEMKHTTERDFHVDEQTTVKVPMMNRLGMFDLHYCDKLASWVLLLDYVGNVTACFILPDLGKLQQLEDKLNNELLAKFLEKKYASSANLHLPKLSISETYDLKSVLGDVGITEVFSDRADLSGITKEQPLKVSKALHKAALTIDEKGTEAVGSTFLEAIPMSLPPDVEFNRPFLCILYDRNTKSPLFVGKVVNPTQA
Protocol: (§1) Various AMPs (4 μg each) were incubated with fetal bovine serum (FBS) components at room temperature in 10 μl PC buffer for 30 min and subjected to horizontal native 8% PAGE, pH8.0 or pH8.8, and Coomassie Blue staining.

Apo-AI = conditions: cited from earlier work
Source text: In addition to protein D, the serum protein apolipoprotein AI (Apo-AI) was also pulled down from crude fetal bovine serum by immobilized TP4-A12I,A15I, but in a less amount (Fig. 2a). The Apo-AI with Mr = 28,080 Da is the major constituent of high-density lipoprotein (HDL), which is involved in the removal of cholesterol from peripheral tissues and its catabolism. […] The amount of Apo-A1 in fetal bovine serum was much less than that of protein D (Fig. 8a, b). Int ...

[3] = tested on: Escherichia coli K-12 (MG1655); assay: Antimicrobial (bactericidal) activity against E. coli, effect of serum or serum proteins; type: cell-based; conditions: 5% (v/v) FBS in PBS, 37 °C; remaining viable cells (cfu)
Protocol: The Gram-negative bacteria Escherichia coli K-12 (MG1655) was cultured and plated in/on Luria–Bertani broth/agar plate (Merck Millipore, Darmstadt, Germany). The Gram-positive Staphylococcus aureus (ATCC 6538P) was cultured and plated in tryptic soy broth/agar (BD, MD, USA). The fungus Candida albicans (ATCC 14,053) was cultured and plated in YM broth/agar (BD, MD, USA). The bacteria were grown overnight, washed, and diluted 1:2000 in phosphate buffered saline (PBS), pH 7.5 or DMEM (Life Biotech, California, USA), pH 7.4. Bacteria (ca. 1 × 10^6 colony-forming units, cfu) were mixed with antimicrobial peptides (AMP) in 100 μl PBS and incubated at 37 °C (for bacteria) and at 30 °C (for fungus). Serial dilutions of each AMP-treated bacteria in PBS/DMEM supplemented with FBS were prepared and plated for the determination of remaining viable cells (expressed as cfu). At least three independent experiments were performed for each assay to determine the average value with standard deviation. MBC was defined as the lowest AMP concentration that kills 99.9% of the original inoculum.

fetal bovine serum (FBS) = assay: Band shift of AMPs by fetal bovine serum; type: binding; conditions: 10–40% FBS; AMP 4 μg; PC buffer, room temperature, 30 min; horizontal native 8% PAGE
Protocol: as §1

T1 sequence (P02769 25-607, one chain of several): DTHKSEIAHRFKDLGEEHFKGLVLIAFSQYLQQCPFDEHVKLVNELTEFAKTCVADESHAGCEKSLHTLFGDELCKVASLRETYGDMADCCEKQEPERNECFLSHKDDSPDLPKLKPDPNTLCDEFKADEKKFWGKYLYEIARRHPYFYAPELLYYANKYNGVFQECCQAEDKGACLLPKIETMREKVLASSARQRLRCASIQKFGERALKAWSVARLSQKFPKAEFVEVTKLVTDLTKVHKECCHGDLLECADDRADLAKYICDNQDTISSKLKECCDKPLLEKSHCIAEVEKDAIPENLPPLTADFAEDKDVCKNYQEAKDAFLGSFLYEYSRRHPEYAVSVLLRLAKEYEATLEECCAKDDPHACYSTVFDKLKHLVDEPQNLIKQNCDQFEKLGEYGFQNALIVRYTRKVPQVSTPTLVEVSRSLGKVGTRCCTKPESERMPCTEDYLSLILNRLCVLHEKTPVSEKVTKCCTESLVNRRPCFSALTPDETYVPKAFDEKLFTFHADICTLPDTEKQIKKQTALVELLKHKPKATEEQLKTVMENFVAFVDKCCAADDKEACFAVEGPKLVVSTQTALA

LL37: human AMP LL37 [reference compound]
binding to protein D (band shift) [1]: also bound by protein D | binding to protein B (band shift) [2]: not by protein A and protein B | effect of Apo-AI on antimicrobial and cytotoxic activities (Apo-AI): inhibits its antimicrobial and cytotoxic activities | effect of FBS on antimicrobial activity against E. coli [3]: serum-mediated repression | mobility of AMP in band shift assay with FBS (fetal bovine serum (FBS)): retarded
